# In US20030165997, “Zinc finger domain libraries” (published 2003):
# Key:
# [1] = molecular target: T1, Zif268 zinc finger protein (three fingers) (UniProt P08046 SEQ:1-89); experiment: EMSA; Zn2+, Mg2+, pH 7.7, RT; no yeast growth; 1.5-fold repression (Table 8)
# [2] = molecular target: T1, Zif268 zinc finger protein (three …); experiment: EMSA; Zn2+, Mg2+, pH 7.7, RT; yeast growth ++; 5.9-fold repression (Table 8)
# [3] = molecular target: ZFP 34 VSSR-HSNK-RSNR (Homo sapiens); experiment: cell_activity; HEK 293 luciferase; settings: tags: HA, NLS
# ZFP 34 VSSR-HSNK-RSNR (Homo sapiens), sequence (chain, as listed by the source): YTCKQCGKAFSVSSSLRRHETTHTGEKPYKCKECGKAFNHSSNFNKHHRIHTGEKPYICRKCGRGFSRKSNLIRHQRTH
# Experimental: (§1) The in vivo activity assay for a particular three-finger protein was carried out as follows. HEK 293 cells were transfected with four plasmids: 14 ng of a plasmid expressing the particular three-finger protein; 14 ng of the reporter plasmid described above; 70 ng of a plasmid that expresses GAL4-VP 16; and 1.4 ng of a plasmid that expresses Renillar luciferase. The GAL4-VP 16 activates transcription of the minimal synthetic promoter in the reporter so that the repression effected by a particular three-finger protein could be clearly detected and compared to other three-finger proteins. The plasmid expressing Renillar luciferase provides a control of transfection efficiency.
# (§2) Lipofectamine (Gibco-BRL) was used for the transfection procedures. Cells were transfected at 30-50% confluency in wells of a 96 well plate. The cells were incubated for two days prior to harvesting for the luciferase assay. Then luciferase activities were measured using the Dual-Luciferase™ Reporter Assay System (Promega). The observed firefly luciferase activity was normalized using the observed level of Renilla luciferase. The extent of repression or “fold-repression” was calculated by dividing a value for normalized reporter expression in the absence of a zinc finger protein by a value for normalized reporter expression in the presence of the zinc finger protein.
# (§3) A total of 153 three-finger chimeric proteins were constructed from both the “zinc finger protein-first” and the “target site-first” approaches. These proteins were tested using the transient cotransfection assay described in Example 68.
# [4] = molecular target: ZFP 16 QSHR2-RDER1-RSHR (synthetic); experiment: cell_activity; HEK293 luciferase repression; settings: tags: HA tag and NLS (P3 vector)
# ZFP 16 QSHR2-RDER1-RSHR (synthetic), sequence (chain, as listed by the source): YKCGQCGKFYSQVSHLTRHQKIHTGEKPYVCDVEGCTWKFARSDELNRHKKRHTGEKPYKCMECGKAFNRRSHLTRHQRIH
# Experimental: as §1, §2, §3
# [5] = molecular target: ZFP 8 RSNR-QSHR2-QSSR1 (synthetic); experiment: cell_activity; HEK293 luciferase repression; settings: tags: HA tag and NLS (P3 vector)
# ZFP 8 RSNR-QSHR2-QSSR1 (synthetic), sequence (chain, as listed by the source): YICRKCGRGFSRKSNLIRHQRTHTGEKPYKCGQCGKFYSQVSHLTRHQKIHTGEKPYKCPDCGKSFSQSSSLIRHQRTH
# Experimental: as §1, §2, §3
# [6] = molecular target: ZFP 22 RSNR-VSSR-RSHR (synthetic); experiment: cell_activity; HEK293 luciferase repression; settings: tags: HA tag and NLS (P3 vector)
# ZFP 22 RSNR-VSSR-RSHR (synthetic), sequence (chain, as listed by the source): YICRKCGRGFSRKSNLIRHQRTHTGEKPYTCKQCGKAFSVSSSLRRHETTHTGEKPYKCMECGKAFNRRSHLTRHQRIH
# Experimental: as §1, §2, §3
# [7] = molecular target: ZFP 25 QSNR3-RDER1-RSNR (synthetic); experiment: cell_activity; HEK293 luciferase repression; same pair listed again as entry 61 with 1.5; settings: tags: HA tag and NLS (P3 vector)
# ZFP 25 QSNR3-RDER1-RSNR (synthetic), sequence (chain, as listed by the source): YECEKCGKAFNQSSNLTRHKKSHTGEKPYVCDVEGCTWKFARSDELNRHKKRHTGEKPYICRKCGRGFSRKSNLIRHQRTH
# Experimental: as §1
# Lipofectamine (Gibco-BRL) was used for the transfection procedures. Cells were transfected at 30-50% confluency in wells of a 96 well plate. The cells were incubated for two days prior to harvesting for the luciferase assay. Then luciferase activities were measured using the Dual-Luciferase™ Reporter Assay System (Promega). The observed firefly luciferase activity was normalized using the observed level of Renilla luciferase. The extent of repression or “fold-repression” was calculated by dividing a value for normalized reporter expression in the absence of a zinc finger protein by a value for normalized reporter expression in the presence of the zinc finger protein. […]
# [8] = molecular target: ZFP 13 QSHR2-RDER1-RSNR (synthetic); experiment: cell_activity; HEK293 luciferase repression; settings: tags: HA tag and NLS (P3 vector)
# ZFP 13 QSHR2-RDER1-RSNR (synthetic), sequence (chain, as listed by the source): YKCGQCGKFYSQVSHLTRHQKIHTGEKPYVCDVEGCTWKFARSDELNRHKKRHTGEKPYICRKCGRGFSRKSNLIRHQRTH
# Experimental: as §1, §2, §3
# [9] = molecular target: ZFP 32 QSNV2-RSNR-RDHT (Homo sapiens); experiment: cell_activity; HEK 293 luciferase; settings: tags: HA, NLS
# ZFP 32 QSNV2-RSNR-RDHT (Homo sapiens), sequence (chain, as listed by the source): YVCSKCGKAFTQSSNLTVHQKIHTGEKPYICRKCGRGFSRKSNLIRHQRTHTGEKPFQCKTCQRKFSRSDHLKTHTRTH
# Experimental: as §1, §2, §3
# [10] = molecular target: ZFP 6 RSHR-RDER1-RDHT (synthetic); experiment: cell_activity; HEK293 luciferase repression; settings: tags: HA tag and NLS (P3 vector)
# ZFP 6 RSHR-RDER1-RDHT (synthetic), sequence (chain, as listed by the source): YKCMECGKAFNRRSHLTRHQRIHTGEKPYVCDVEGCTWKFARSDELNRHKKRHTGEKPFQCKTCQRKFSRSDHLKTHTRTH
# Experimental: as §1, §2, §3
# [11] = molecular target: ZFP 11 QSHT-RSHR-RDHT (synthetic); experiment: cell_activity; HEK293 luciferase repression; settings: tags: HA tag and NLS (P3 vector)
# ZFP 11 QSHT-RSHR-RDHT (synthetic), sequence (chain, as listed by the source): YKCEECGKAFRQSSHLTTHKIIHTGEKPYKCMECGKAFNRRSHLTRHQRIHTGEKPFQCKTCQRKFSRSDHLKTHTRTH
# Experimental: as §1, §2, §3
# [12] = molecular target: ZFP 12 QSSR1-QSNV2-RSNR (synthetic); experiment: cell_activity; HEK293 luciferase repression; settings: tags: HA tag and NLS (P3 vector)
# ZFP 12 QSSR1-QSNV2-RSNR (synthetic), sequence (chain, as listed by the source): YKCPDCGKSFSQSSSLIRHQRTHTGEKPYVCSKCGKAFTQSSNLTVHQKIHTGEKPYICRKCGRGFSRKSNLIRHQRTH
# Experimental: as §1, §2, §3
# [13] = molecular target: ZFP 28 VSSR-QSNR3-RDER1 (synthetic); experiment: cell_activity; HEK293 luciferase repression; settings: tags: HA tag and NLS (P3 vector)
# ZFP 28 VSSR-QSNR3-RDER1 (synthetic), sequence (chain, as listed by the source): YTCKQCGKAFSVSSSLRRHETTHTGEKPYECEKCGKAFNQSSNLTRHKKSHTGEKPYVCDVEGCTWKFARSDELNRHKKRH
# Experimental: as §1, §2, §3
# [14] = molecular target: T1, Zif268 zinc finger protein (three …); experiment: EMSA; Zn2+, Mg2+, pH 7.7, RT; no yeast growth; 1.6-fold repression (Table 8)
# [15] = molecular target: T1, Zif268 zinc finger protein (three …); experiment: EMSA; Zn2+, Mg2+, pH 7.7, RT; no yeast growth; 1.2-fold repression (Table 8)
# [16] = molecular target: ZFP 26 QSNR3-QSNV2-RSHR (synthetic); experiment: cell_activity; HEK293 luciferase repression; settings: tags: HA tag and NLS (P3 vector)
# ZFP 26 QSNR3-QSNV2-RSHR (synthetic), sequence (chain, as listed by the source): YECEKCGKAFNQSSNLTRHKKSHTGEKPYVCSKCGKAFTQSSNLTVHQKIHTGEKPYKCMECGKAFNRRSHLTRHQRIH
# Experimental: as §1, §2, §3
# [17] = molecular target: ZFP 20 QSNR3-QSHR2-RSNR (synthetic); experiment: cell_activity; HEK293 luciferase repression; settings: tags: HA tag and NLS (P3 vector)
# ZFP 20 QSNR3-QSHR2-RSNR (synthetic), sequence (chain, as listed by the source): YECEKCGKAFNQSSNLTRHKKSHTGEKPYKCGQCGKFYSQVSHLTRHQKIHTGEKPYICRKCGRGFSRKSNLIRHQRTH
# Experimental: as §1, §2, §3
binder,measurement,setting,value
GCTT probe (dsDNA) DNA 1: CCGGGTCGTGCTTGGGCGGTACCG DNA 2: TCGACGGTACCGCCCAAGCACGAC,Kd,[1],2.1 nM
GAGT probe (dsDNA) DNA 1: CCGGGTCGGGAGTGGGCGGTACCG DNA 2: TCGACGGTACCGCCCACTCCCGAC,Kd,[2],0.17 nM
target 34 (dsDNA) DNA 1: GAGGACGTG DNA 2: CACGTCCTC,activity,[3],1.9 fold repression
target 16 (dsDNA) DNA 1: GGGGCGGGAT DNA 2: ATCCCGCCCC,activity,[4],2.3 fold repression
target 8 (dsDNA) DNA 1: GTAGGAGAGT DNA 2: ACTCTCCTAC,activity,[5],3.3 fold repression
target 22 (dsDNA) DNA 1: GGGGTTGAG DNA 2: CTCAACCCC,activity,[6],2.1 fold repression
target 25 (dsDNA) DNA 1: GAGGCGGAAA DNA 2: TTTCCGCCTC,activity,[7],2.1 fold repression
target 13 (dsDNA) DNA 1: GAGGTGGGAG DNA 2: CTCCCACCTC,activity,[8],2.8 fold repression
target 32 (dsDNA) DNA 1: GGGGAGAAA DNA 2: TTTCTCCCC,activity,[9],1.9 fold repression
target 6 (dsDNA) DNA 1: AGGGCGGGGC DNA 2: GCCCCGCCCT,activity,[10],3.6 fold repression
target 11 (dsDNA) DNA 1: TGGGGGTGA DNA 2: TCACCCCCA,activity,[11],3 fold repression
target 12 (dsDNA) DNA 1: GAGCAAGTAG DNA 2: CTACTTGCTC,activity,[12],2.9 fold repression
target 28 (dsDNA) DNA 1: GCGGAAGTTC DNA 2: GAACTTCCGC,activity,[13],2 fold repression
GAGC probe (dsDNA) DNA 1: CCGGGTCGCGAGCGGGCGGTACCG DNA 2: TCGACGGTACCGCCCGCTCGCGAC,Kd,[14],2.3 nM
GACT probe (dsDNA) DNA 1: CCGGGTCGGGACTGGGCGGTACCG DNA 2: TCGACGGTACCGCCCAGTCCCGAC,Kd,[15],4.9 nM
target 26 (dsDNA) DNA 1: GGGAAAGAAC DNA 2: GTTCTTTCCC,activity,[16],2 fold repression
target 20 (dsDNA) DNA 1: GAGGGAGAAG DNA 2: CTTCTCCCTC,activity,[17],2.1 fold repression
